Laboratory results as given in patent publication US20230159650A1 (SEOUL NATIONAL UNIVERSITY R AND DB FOUNDATION, published 2023).
Changes are numbered by the printed parent chain. One block for each binder: values may come before it.

Target: T1, human FasL where an immunoglobulin (IgG) is combined (huFasL-IgG) (human, UniProt P48023 134-281, limits assumed)
T1 construct: also called IgG-combined FasL; not shown: immunoglobulin (IgG) part
T1 sequence (looked up): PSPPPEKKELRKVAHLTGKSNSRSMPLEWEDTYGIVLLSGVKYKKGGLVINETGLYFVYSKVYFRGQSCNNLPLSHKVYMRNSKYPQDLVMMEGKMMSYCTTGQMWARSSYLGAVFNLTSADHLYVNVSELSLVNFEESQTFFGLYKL
Assay: flow cytometry on transfected mouse cells
Protocol: After transfecting mutated huDR5 DNA to mouse cells and expressing each of DR5 where huDR5-CRD2 was mutated (Table 1, SEQ ID NO: 4), or DR5 where huDR5-CRD3 was mutated (Table 1, SEQ ID NO: 5), flow cytometry was performed using human FasL where an immunoglobulin (IgG) binding only to cells expressing huDR5 was combined (huFasL-IgG), and the result was shown in FIG. 8b.

binding result: no binding
B1: DR5 where huDR5-CRD2 was mutated (Mutation huDR5-CRD2 Protein) (receptor)
chain: ITQQDLAPQQRAAPQQKRSSPSEGLCPPGHHISEDGRDCISCKYGQDYSTHWNDLLACLACTRCAAGEVELSPCTTTRNTVCQCEEGTFREEDSPEMCRKCRTGCPRGMVKVGDCTPWSDIECVHKESGIIIGVTVAAVVLIVAVFVCKSLLWKKVLPYLKGICSGGGGDPERVDRSSQRPGAEDNVLNEIVSILQPTQVPEQEMEVQEPAEPTGVNMLSPGESEHLLEPAEAERSQRRRLLVPANEGDPTETLRQCFDDFADLVPFDSWEPLMRKLGLMDNEIKVAKAEAAGHRDTLYTMLIKWVNKTGRDASVHTLLDALETLGERLAKQKIEDHLLSSGKFMYLEGNADSAMS
notes: Expressed in transfected mouse cells; also called huDR5-CRD2 mutant

binding result: no binding
B2: DR5 where huDR5-CRD3 was mutated (Mutation huDR5-CRD3 Protein) (receptor)
chain: B1 chain with A57F, A60R, A65D, A66S, S94A, E96A, R99A, R102A
notes: Expressed in transfected mouse cells; also called huDR5-CRD3 mutant
